We go through one molecule from article PMC2938385 (Molecular Biology of the Cell, 2010).

The target in test [1] is T1, mDia2N (mDia2 residues 150-533) (UniProt Q9Z207 150-533).
T1 sequence (looked up): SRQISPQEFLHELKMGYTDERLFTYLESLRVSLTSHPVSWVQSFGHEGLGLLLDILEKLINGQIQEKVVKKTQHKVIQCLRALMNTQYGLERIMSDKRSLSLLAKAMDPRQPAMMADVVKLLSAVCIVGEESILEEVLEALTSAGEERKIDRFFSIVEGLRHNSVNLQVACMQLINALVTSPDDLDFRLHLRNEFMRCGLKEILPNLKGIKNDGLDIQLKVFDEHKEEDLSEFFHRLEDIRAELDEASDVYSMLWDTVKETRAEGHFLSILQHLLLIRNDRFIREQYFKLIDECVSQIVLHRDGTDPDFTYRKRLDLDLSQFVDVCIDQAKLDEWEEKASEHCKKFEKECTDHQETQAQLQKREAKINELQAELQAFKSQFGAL
In words: SPR.

The target in test [2] is T2, mDia3N (mDia3 residues 166-542) (UniProt O70566 166-542).
T2 sequence (looked up): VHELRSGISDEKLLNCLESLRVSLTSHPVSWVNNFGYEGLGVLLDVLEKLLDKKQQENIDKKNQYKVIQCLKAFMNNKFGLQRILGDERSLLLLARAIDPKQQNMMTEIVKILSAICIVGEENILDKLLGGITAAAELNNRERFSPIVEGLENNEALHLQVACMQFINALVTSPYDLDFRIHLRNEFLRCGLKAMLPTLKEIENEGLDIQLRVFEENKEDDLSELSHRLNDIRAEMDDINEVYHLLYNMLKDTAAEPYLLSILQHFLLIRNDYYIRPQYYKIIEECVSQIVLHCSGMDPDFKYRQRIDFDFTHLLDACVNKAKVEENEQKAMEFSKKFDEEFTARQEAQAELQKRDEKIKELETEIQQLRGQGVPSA
The test is described as follows: SPR.

B1: GST-anillin (1-91) (domain or fragment, human, UniProt Q9NQW6-2 1-91, looked up)
chain: MDPFTEKLLERTRARRENLQRKMAERPTAAPRSMTHAKRARQPLSEASNQQPLSGGEEKSCTKPSPSKKRCSDNTEVEVSNLENKQPVEST
The term Kd denotes the free concentration of one partner at which half of the binding sites on the other are occupied at equilibrium, for simple one-to-one binding. Regarding B1, the values for the dissociation constant (Kd) in test [1] and in test [2] were 236 nM and 1020 nM, respectively.
